Data: the DeepSol protein solubility set

Test: soluble on expression in E. coli; label from the status in PepcDB or PDB records

Sequence | soluble on expression in E. coli
DPEDPAEDIIQTAGTIAHRGADRQDGGWGSGGPKFPQNGRLHALLRAYADGGQEDYLNVVEETLDVMADRGLYDHVGGGFHRYATDQQWAVPHFEKMLYDNAEIPRAFLAGYQAIGSERYASVVRETFEFVQRELQHPDGGFFSTLDAESAPHSESRSDSEQSSGESPRDDPDGETEEGLFYVWTPEQVHDAVDDETDADIFCDYYGVTEQGNFEGATVLAVRKPVPVLAEEYERSEDEITASLQRALNETFEARKDRPRPARDEKVLAGWNGLMIRALAEGAIVLDDQYADVAADALSFVREHLWDADAGRLNRRYKDDDVAIDGYLEDYAFLGRGALTLFEATGDVEHLAFAMDLGQAITEAFWDDEQGTLFFTPTGGESLVARPQELTD | not soluble
MARSLLLPLQILLLSLALETAGEEAQGDKIIDGAPCARGSHPWQVALLSGNQLHCGGVLVNERWVLTAAHCKMNEYTVHLGSDTLGDRRAQRIKASKSFRHPGYSTQTHVNDLMLVKLNSQARLSSMVKKVRLPSRCEPPGTTCTVSGWGTTTSPDVTFPSDLMCVDVKLISPQDCTKVYKDLLENSMLCAGIPDSKKNACNGDSGGPLVCRGTLQGLVSWGTFPCGQPNDPGVYTQVCKFTKWINDTMKKHR | soluble
MSLAEPKWLQDLKEEDYIKEDFDATGKSRYTVEGIDKNDPDWLNKAAKKVHAAEGDDYVKLDAGLLTVNQINWMLRRAFGELTYVDDNNQFLWYNRPTDPNKKMLAKRTPDQVGDTMGAVHPDIRNVIPEAKKVIYALRNKIDGHDEVKMPVPNGNRHKLILHDYKRIEDDEGNYVGTYEWVQDIYPFVKYFCETTGQKLVDDPDATTGATYKRDEVDTGTGASKHEEHVEKKQEETDTSSGASEYEGHHHHHH | soluble
MQKKSIYVAYTGGTIGMQRSDNGYIPVSGHLQRQLALMPEFHRPEMPDFTIHEYAPLIDSSDMTPEDWQHIANDIQQNYDLYDGFVILHGTDTMAFTASALSFMLENLAKPVIITGSQIPLAELRSDGQTNLLNALYLAANHPVNEVSLFFNNQLFRGNRTTKAHADGFDAFASPNLSVLLEAGIHIRRQSSVVSPTSNGPLIVHRITPQPIGVVTIYPGISGAVVRNFLLQPVKALILRSYGVGNAPQKAELLDELKNASDRGIVVVNLTQCISGSVNMGGYATGNALAQAGVISGFDMTVEAALTKLHYLLSQSLSPNEIRQLMQQNLRGELTDTQ | soluble
SLIFILGIFYYLTQPLKSNSVVFIPQGSISQIITYLKQNKYQMSNIDKYILFFLGHPQSGWINIGTKDLNRAEFLHKLTIAKAALQTITLIPGETSVIFLEQAAKQLGLDKDILLKEFQAQAPYDEGVFLPETYKIPKGITENLLIQMLLNHAEISNKKTSEKIFGDYNPKKWHQYIIIASVIQKEAANDNEMPIVASVIYNRLKKGMKLQMDGTLNYGIYSHVKVTPQRIRQDNSFYNTYKFTGLPKEAVCNVSLAAIRAAIFPLKTDYLYFVRDKNTGVHIFSTNIDDHNKAINLQKGK | soluble
MGSDKIHHHHHHMPRKTTSLCRRILLENYTTRGEKMITNLSDRVFVIGTGTSANSVLVCGKKFCVLFDSTLFPEKARKIKEFAAEILGKEIAVVFNTHYHPDHTFGNEVFDRIISHSLTRKSLEEMDEEYIRKIGVEVSLKFPDETFSERENYRFGDIVVEAVHLGGHTPDSSIFVLKNEKIVICGDLLTTGIHAEIVTDSDLFGWIEALSEIEKIRADYFVPGHGKVGTIEDVRNMKDYISKVLRFREGSVKHSELLEDPNFINREHPELLTWGLENIIR | not soluble
MFLVVGQGNPGERYARTRHNLGFMVLDRLGLSFRPRGEALVAEAEGGLFLKPLTYYNLTGRAVAPLARFYKIPPERILVVHDEMDLPLGRIRFKAGGSAAGNRGVLSIEEALGTRAFHRLRLGIGKPPDPSRGAEYVLSPFREEELPVVERVLEAAKEAVWCWVREGLPPCAGRFNGLDLSLG | soluble
MGSDKIHHHHHHMTWHEVNDVIVITLPEIFDMNANLGYLTREKNECMYEIENNIITKVIAIGEIRSLVQVSVINNKQMIVQFLNDSRPVEQWKREEIVKYIHEWFDLDNDLTPFYEMAKADPLLKMPARKFYGLRVIGIPDLFEALCWGVLGQQINLAFAYSLKKQFVEAFGDSIEWNGKKYWVFPPYERIARLTPTDLADIKMTVKKSEYIIGIARLMASGELSREKLMKMNFKDAEKNLIKIRGIGPWTANYVLMRCLRFPTAFPIDDVGLIHSIKILRNMNRKPTKDEILEISVPWKEWQSYATFYLWRVLY | not soluble
MGSDKIHHHHHHMNSPADYDPKPRRASVAVDVGGVIVGGGAPVVVQSMTNTDTADIDATVRQVAALFQAGSEMVRITVDRDESAAAVPKIRERLLRLGMDVPLIGDFHYIGHKLLADHPACAEALAKYRINPGNVGFKDKKDKQFGEIVEMAIRYDKPVRIGVNWGSLDQELLTTLMDRNKEQGFPLSARQVTREAIVQSALISAELAEEIGLPRNRIILSAKVSQVQDLIAVYSMLSERSNHALHLGLTEAGMGSKGIVASSAAMGYVLQHGIGDTIRVSLTPEPNGDRTREVQVAQELLQVMGFRQFIPVVAACPGCGRTTSTVFQELAQNIQNDIRKNMPIWREKYPGVEALNVAVMGCIVNGPGESKHADIGISLPGTGESPAAPVFIDGEKALTLRGPNIAADFEALVIDYIEKRFGQKDAAE | not soluble
MSLNPNVQECSFEETIEAHLFANGYASLPASDYDAALALFPTSVLTFVRATQLKEWAKLEALHGANTEATVLKDLTHWLDTHGTLAVLRNGFKCYGRTLRVAYFKPAHGMNPELAAQYAANRVGVIRQLRYSQRNTNELDLVLSINGIPVFTAELKNPMTGQTVTNAIAQYQHDRDHREPLFEFKRRALVHFAVDTEQVFMTTRLAGSATHFLPFNKGLDGGAGNPPDPAGRAYRTAYLWEEVWQRDSLLDIFARFIHLQVEEKRTDDGRKIKKETMIFPRYHQLRAVRELEDAARTEGPGHNYLVEHSAGSGKSNTIGWLAHRLASLHNESDHKVFDSVIVITDRRVLDRQLQDTIYQFEHRQGVVQKIDEDSRQLAEALTNSVPIIISTLQKFPFVARQLARMAEERREGADGILPTRRCAVIIDEAHSSQSGETATDLKEVLGGHVLREEAARYAVDEGVDNLDELYRSMAKRGRQTNLSFFAFTATPKHKTLAVFGRDEAGKAGQPFHRYTMSQAIEEGFIMDVLKNYTTYATYYKLVKASEDDPNVERKQAAKALARFMRLHPYNIAQKTEVMVEHFNAVTRHKVGGKAKAMVVTGSRLEAVRYKLAFDAYIREKGYSWIKTLVAFSGEVVDDELPGKTWTEVGMNGGIKEGVLPEKFDSSEYQVLLVAEKYQTGYDQPLLHTMYVDKRLAGIQAVQTLSRLNRMHPLKEDTFVLDFVNDRQEIKEAFKQYHEGAEMGEEADPNQMYAIKAELDASGIYLLEEMQRFIGIYFKPKQRQSPADHQAMNEGHHHHHH | not soluble
MLKEHSKKQHLRREVQEKLKNEAIVAAQTLSTAVVDHLNAKVAQAYGNQKRLDVEAKRFENNSAALAKQTEQWLFITEGLNYALKEIGDVENWSKTIENDMKIITETLRRAYEAKNPPLPPNQANPASH | not soluble
MLILNQRQQELLDMVKRESYVSVEKLADHFSVTRQTIRRDIALLAEHQLLQRYHGGASVLSSVENVAYQARQVLCIEEKRRIAACVARHIPDNASLFINLGTTTEEVAKALHRHRGLRVITNNLHVAEQMCDYPDCEVIVLGGSLRKRDRGLTGEATVQMIRQFRVDYGIIGVSSIESDGTLRDYDYREVRTTEAIIQQSRQVFLAADHSKFDRPALVELGRLSQIAALFTDKPVPPAIAHVMQEAGTQLHVAELEHHHHHH | soluble
MGSDKIHHHHHHMRETPFRLLLDARACRKKGSAAILQRQRERLVEMVTYARTCSPYYRQLYQGLPARITDPRLLPVTTKAALMAHFDDWVTDPAVTLEGTQSFVADPSLLGEKFLNRYTAATTSGTTGTRGLFLLDTRTLAVSKALTFRMLSSWLTPADLMGIIRGRGRIAMVVATGGHFASAAAAAALRKGPARHSVRVFPVQTPIPDLVAQLNSFRPALLAPYASTGRLLASEQEAGRLTIQPVAVILSAEGLPAGEYARISGAFGAKVRQGYAATECPFLSYSCQEGWLHVNSDWAILEPVDANHEPVPPGQPSHTVLLSNLANRIQPILRYDLGDSVTARTDPCRCGDPTPAIHVQGRNAELLTLQGNRLAVAVTPLTLSTALDRVQGLSKGQIIQTGPQSLSLRLQPAAGADPENVWESARSEITRALTSHGLGNVTITRDAGPPLLTPGGKHRTVVPLPP | not soluble
MAAHSSAGLLDYVFPTIVSEYYNQAPTKEGYRFASEEPNGSKREEMGVIMNPGTPDEQLVVMGMYSSYDEKTDTETVTMYTADKDGYKARYQIKNRKLSPGALKSAAGLEHHHHHH | not soluble
